Target: Mg-ATP actin (15% Alexa 488-labeled), assembled into actin filaments (F-actin) (not stated (chicken or rabbit skeletal muscle)) (UniProt P68135)
Test: TIRF microscopy; two-color TIRFM of 1.5 μM Mg-ATP actin (15% Alexa 488) assembling with Cy5-labeled Cdc8 at 1 μM and above; 10 mM imidazole pH 7.0, 50 mM KCl, 1 mM MgCl2, 1 mM EGTA, 0.5% methylcellulose, room temperature

Substance | percent of actin filaments associated with tropomyosin [%] | kon per unit filament length of the first observed Cdc8 binding (random-binding model fitted to the TIRFM data) [s⁻¹ nm⁻¹] | percent of F-actin coated at 2 μM Cdc8 and higher [%] | percent of actin filament sites coated at 1.25 μM Cdc8 [%] | percent of total actin filament coverage at 1 μM Cdc8 [%] | spreading rate of Cdc8 toward the barbed end (Cdc8 molecules sec^-1 μM^-1) | spreading rate of Cdc8 toward the pointed end (Cdc8 molecules sec^-1 μM^-1)
tropomyosin AlaSer-Cdc8 D142C, Cy5-labeled (natural protein) | 100 |  |  |  |  |  | 
tropomyosin AlaSer-Cdc8 I76C, Cy5-labeled (natural protein) | 100 | 4e-06 | 98 | 40 | 2 | 3.2 | 2.4
